T1: FcγRIIb (human, UniProt P31994 43-217)
T1 construct: extracellular domain; also called FcgRIIb; 2b
T1 sequence (looked up): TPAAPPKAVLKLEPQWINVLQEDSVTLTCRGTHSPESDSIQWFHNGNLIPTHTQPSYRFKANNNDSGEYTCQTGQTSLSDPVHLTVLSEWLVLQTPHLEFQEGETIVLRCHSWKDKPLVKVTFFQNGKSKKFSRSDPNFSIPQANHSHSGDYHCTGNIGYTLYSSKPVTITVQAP

T2: FcγRIIa H (FcγRIIa, type H allotype, His at position 131), extracellular domain with C-terminal His tag (human, UniProt P12318 34-217)
T2 construct: extracellular domain; Soluble receptor expressed in FreeStyle293 cells; analyte in Biacore; also called FcgRIIa H; 2aH; not shown: C-terminal His tag
T2 sequence (looked up): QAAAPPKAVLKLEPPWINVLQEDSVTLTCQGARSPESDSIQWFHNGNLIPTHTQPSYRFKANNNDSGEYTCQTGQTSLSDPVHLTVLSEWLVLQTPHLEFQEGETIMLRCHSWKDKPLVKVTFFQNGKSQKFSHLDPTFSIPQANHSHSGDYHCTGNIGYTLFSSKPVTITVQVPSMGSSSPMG

T3: FcγRIIb, extracellular domain with C-terminal His tag (human, UniProt P31994 43-217)
T3 construct: extracellular domain; Soluble receptor expressed in FreeStyle293 cells; analyte in Biacore; also called FcgRIIb; 2b; not shown: C-terminal His tag
T3 sequence (looked up): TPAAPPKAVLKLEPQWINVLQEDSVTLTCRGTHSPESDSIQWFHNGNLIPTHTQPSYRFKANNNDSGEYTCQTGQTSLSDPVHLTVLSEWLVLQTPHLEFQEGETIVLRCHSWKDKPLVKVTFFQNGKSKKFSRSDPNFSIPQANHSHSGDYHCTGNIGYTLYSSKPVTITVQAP

B1: GpH7-A5/GpH7-B3 variant D265_15Y/GpL16-k0 (antibody, human IgG1, kappa)
heavy 1: not shown
heavy 2: not shown
light: DIVMTQSPLSLPVTPGEPASISCQASESLVHSNRNTYLHWYLQKPGQSPQLLIYKVSNRFSGVPDRFSGSGSGTDFTLKISRVEAEDVGVYYCSQNTHVPPTFGQGTKVEIERTVAAPSVFIFPPSDEQLKSGTASVVCLLNNFYPREAKVQWKVDNALQSGNSQESVTEQDSKDSTYSLSSTLTLSKADYEKHKVYACEVTHQGLSSPVTKSFNRGEC
notes: heterodimerized antibody, mutation in the GpH7-B3 chain only; also called He Ab
B2: GpH7-A5/GpH7-B3 variant D270_01G/GpL16-k0 (antibody, human IgG1, kappa)
heavy 1: not shown
heavy 2: not shown
light: DIVMTQSPLSLPVTPGEPASISCQASESLVHSNRNTYLHWYLQKPGQSPQLLIYKVSNRFSGVPDRFSGSGSGTDFTLKISRVEAEDVGVYYCSQNTHVPPTFGQGTKVEIERTVAAPSVFIFPPSDEQLKSGTASVVCLLNNFYPREAKVQWKVDNALQSGNSQESVTEQDSKDSTYSLSSTLTLSKADYEKHKVYACEVTHQGLSSPVTKSFNRGEC
notes: Heterodimerized IgG1; mutation only in the GpH7-B3 chain; also called He Ab
B3: GpH7-A5/GpH7-B3 variant D270_08L/GpL16-k0 (antibody, human IgG1, kappa)
heavy 1: not shown
heavy 2: not shown
light: DIVMTQSPLSLPVTPGEPASISCQASESLVHSNRNTYLHWYLQKPGQSPQLLIYKVSNRFSGVPDRFSGSGSGTDFTLKISRVEAEDVGVYYCSQNTHVPPTFGQGTKVEIERTVAAPSVFIFPPSDEQLKSGTASVVCLLNNFYPREAKVQWKVDNALQSGNSQESVTEQDSKDSTYSLSSTLTLSKADYEKHKVYACEVTHQGLSSPVTKSFNRGEC
notes: as for B2
B4: GpH7-A5/GpH7-B3 variant D270_10E/GpL16-k0 (antibody, human IgG1, kappa)
heavy 1: not shown
heavy 2: not shown
light: DIVMTQSPLSLPVTPGEPASISCQASESLVHSNRNTYLHWYLQKPGQSPQLLIYKVSNRFSGVPDRFSGSGSGTDFTLKISRVEAEDVGVYYCSQNTHVPPTFGQGTKVEIERTVAAPSVFIFPPSDEQLKSGTASVVCLLNNFYPREAKVQWKVDNALQSGNSQESVTEQDSKDSTYSLSSTLTLSKADYEKHKVYACEVTHQGLSSPVTKSFNRGEC
notes: as for B2
B5: GpH7-A5/GpH7-B3 variant D270_07I/GpL16-k0 (antibody, human IgG1, kappa)
heavy 1: not shown
heavy 2: not shown
light: DIVMTQSPLSLPVTPGEPASISCQASESLVHSNRNTYLHWYLQKPGQSPQLLIYKVSNRFSGVPDRFSGSGSGTDFTLKISRVEAEDVGVYYCSQNTHVPPTFGQGTKVEIERTVAAPSVFIFPPSDEQLKSGTASVVCLLNNFYPREAKVQWKVDNALQSGNSQESVTEQDSKDSTYSLSSTLTLSKADYEKHKVYACEVTHQGLSSPVTKSFNRGEC
notes: as for B2
B6: GpH7-A5/GpH7-B3 variant D270_06M/GpL16-k0 (antibody, human IgG1, kappa)
heavy 1: not shown
heavy 2: not shown
light: DIVMTQSPLSLPVTPGEPASISCQASESLVHSNRNTYLHWYLQKPGQSPQLLIYKVSNRFSGVPDRFSGSGSGTDFTLKISRVEAEDVGVYYCSQNTHVPPTFGQGTKVEIERTVAAPSVFIFPPSDEQLKSGTASVVCLLNNFYPREAKVQWKVDNALQSGNSQESVTEQDSKDSTYSLSSTLTLSKADYEKHKVYACEVTHQGLSSPVTKSFNRGEC
notes: as for B2
B7: GpH7-A5/GpH7-B3 variant D270_12R/GpL16-k0 (antibody, human IgG1, kappa)
heavy 1: not shown
heavy 2: not shown
light: DIVMTQSPLSLPVTPGEPASISCQASESLVHSNRNTYLHWYLQKPGQSPQLLIYKVSNRFSGVPDRFSGSGSGTDFTLKISRVEAEDVGVYYCSQNTHVPPTFGQGTKVEIERTVAAPSVFIFPPSDEQLKSGTASVVCLLNNFYPREAKVQWKVDNALQSGNSQESVTEQDSKDSTYSLSSTLTLSKADYEKHKVYACEVTHQGLSSPVTKSFNRGEC
notes: as for B2
B8: GpH7-A5/GpH7-B3 variant D265_20W/GpL16-k0 (antibody, human IgG1, kappa)
heavy 1: not shown
heavy 2: not shown
light: DIVMTQSPLSLPVTPGEPASISCQASESLVHSNRNTYLHWYLQKPGQSPQLLIYKVSNRFSGVPDRFSGSGSGTDFTLKISRVEAEDVGVYYCSQNTHVPPTFGQGTKVEIERTVAAPSVFIFPPSDEQLKSGTASVVCLLNNFYPREAKVQWKVDNALQSGNSQESVTEQDSKDSTYSLSSTLTLSKADYEKHKVYACEVTHQGLSSPVTKSFNRGEC
notes: as for B1
B9: GpH7-A5/GpH7-B3 variant D270_13S/GpL16-k0 (antibody, human IgG1, kappa)
heavy 1: not shown
heavy 2: not shown
light: DIVMTQSPLSLPVTPGEPASISCQASESLVHSNRNTYLHWYLQKPGQSPQLLIYKVSNRFSGVPDRFSGSGSGTDFTLKISRVEAEDVGVYYCSQNTHVPPTFGQGTKVEIERTVAAPSVFIFPPSDEQLKSGTASVVCLLNNFYPREAKVQWKVDNALQSGNSQESVTEQDSKDSTYSLSSTLTLSKADYEKHKVYACEVTHQGLSSPVTKSFNRGEC
notes: as for B2
B10: GpH7-A5/GpH7-B3 variant D270_03V/GpL16-k0 (antibody, human IgG1, kappa)
heavy 1: not shown
heavy 2: not shown
light: DIVMTQSPLSLPVTPGEPASISCQASESLVHSNRNTYLHWYLQKPGQSPQLLIYKVSNRFSGVPDRFSGSGSGTDFTLKISRVEAEDVGVYYCSQNTHVPPTFGQGTKVEIERTVAAPSVFIFPPSDEQLKSGTASVVCLLNNFYPREAKVQWKVDNALQSGNSQESVTEQDSKDSTYSLSSTLTLSKADYEKHKVYACEVTHQGLSSPVTKSFNRGEC
notes: as for B2
B11: GpH7-A5/GpH7-B3 variant D270_04F/GpL16-k0 (antibody, human IgG1, kappa)
heavy 1: not shown
heavy 2: not shown
light: DIVMTQSPLSLPVTPGEPASISCQASESLVHSNRNTYLHWYLQKPGQSPQLLIYKVSNRFSGVPDRFSGSGSGTDFTLKISRVEAEDVGVYYCSQNTHVPPTFGQGTKVEIERTVAAPSVFIFPPSDEQLKSGTASVVCLLNNFYPREAKVQWKVDNALQSGNSQESVTEQDSKDSTYSLSSTLTLSKADYEKHKVYACEVTHQGLSSPVTKSFNRGEC
notes: as for B2
B12: GpH7-A5/GpH7-B3 variant D270_11K/GpL16-k0 (antibody, human IgG1, kappa)
heavy 1: not shown
heavy 2: not shown
light: DIVMTQSPLSLPVTPGEPASISCQASESLVHSNRNTYLHWYLQKPGQSPQLLIYKVSNRFSGVPDRFSGSGSGTDFTLKISRVEAEDVGVYYCSQNTHVPPTFGQGTKVEIERTVAAPSVFIFPPSDEQLKSGTASVVCLLNNFYPREAKVQWKVDNALQSGNSQESVTEQDSKDSTYSLSSTLTLSKADYEKHKVYACEVTHQGLSSPVTKSFNRGEC
notes: as for B2
B13: GpH7-A5/GpH7-B3 variant D270_02A/GpL16-k0 (antibody, human IgG1, kappa)
heavy 1: not shown
heavy 2: not shown
light: DIVMTQSPLSLPVTPGEPASISCQASESLVHSNRNTYLHWYLQKPGQSPQLLIYKVSNRFSGVPDRFSGSGSGTDFTLKISRVEAEDVGVYYCSQNTHVPPTFGQGTKVEIERTVAAPSVFIFPPSDEQLKSGTASVVCLLNNFYPREAKVQWKVDNALQSGNSQESVTEQDSKDSTYSLSSTLTLSKADYEKHKVYACEVTHQGLSSPVTKSFNRGEC
notes: as for B2
B14: GpH7-A5/GpH7-B3 variant V266_12R/GpL16-k0 (antibody, human IgG1, kappa)
heavy 1: not shown
heavy 2: not shown
light: DIVMTQSPLSLPVTPGEPASISCQASESLVHSNRNTYLHWYLQKPGQSPQLLIYKVSNRFSGVPDRFSGSGSGTDFTLKISRVEAEDVGVYYCSQNTHVPPTFGQGTKVEIERTVAAPSVFIFPPSDEQLKSGTASVVCLLNNFYPREAKVQWKVDNALQSGNSQESVTEQDSKDSTYSLSSTLTLSKADYEKHKVYACEVTHQGLSSPVTKSFNRGEC
notes: as for B1

Key:
FcγRIIb = target: T1, FcγRIIb; test: SPR (Biacore), antibody captured, FcγR as analyte; relative binding
Protocol: The heterodimerized antibodies He Abs in which one of the H chains was introduced with an alteration were assayed for their binding activities to each activating FcγR and inhibitory FcγR according to the method described in Example 4. […] The activating FcγRs in FIGS. 26, 27, 28, and 29 are FcγRIa, FcγRIIa (R), FcγRIIa (H), and FcγRIIIa, respectively.
Analysis of interaction between objective antibody and the FcγR was carried out using Biacore T100 (GE Healthcare). HBS-EP+ (GE Healthcare) was used as the running buffer, and the measurement temperature was set to 25° C. Chips produced by immobilizing the antigen peptide by the amine coupling method to a Series S Sencor Chip CM5 (GE Healthcare), or alternatively, chips produced by allowing preliminarily biotinylated antigen peptides to interact with and immobilize onto a Series S Sensor Chip SA (certified) (GE Healthcare) were used. Antibodies of interest were captured onto an antigen peptide-immobilized chip, and allowed to interact to each FcγR diluted with running buffer. To regenerate and repeatedly use the chip, the antibodies captured on the chip were washed off by reacting 10 mM glycine-HCl, pH 1.5.

[1] = target: T2, FcγRIIa H (FcγRIIa, type H allotype, …); test: SPR (Biacore), captured antibody, FcγR as analyte
[2] = target: T3, FcγRIIb, extracellular domain with …; test: SPR (Biacore), captured antibody, FcγR as analyte
[3] = target: T2, FcγRIIa H (FcγRIIa, type H allotype, …); test: ratio of He/Con_2aH to He/Con_2b (FcγRIIa H over FcγRIIb), SPR

Binder | He/Con_2b (IIb binding) (FcγRIIb) | He/Con_2aH [1] | He/Con_2b [2] | He_2aH/2b (IIaH/IIb) [3]
B1 | 0.6 % of GpH7-A5/GpH7-B3/GpL16-k0 (=100) | – | – | –
B2 | – | 52.5 relative, GpH7-A5/GpH7-B3/GpL16-k0 = 100 | 30.5 relative, GpH7-A5/GpH7-B3/GpL16-k0 = 100 | 1.72
B3 | – | 75.8 relative, GpH7-A5/GpH7-B3/GpL16-k0 = 100 | 53.6 relative, GpH7-A5/GpH7-B3/GpL16-k0 = 100 | 1.41
B4 | – | 102 relative, GpH7-A5/GpH7-B3/GpL16-k0 = 100 | 76.5 relative, GpH7-A5/GpH7-B3/GpL16-k0 = 100 | 1.34
B5 | – | 64 relative, GpH7-A5/GpH7-B3/GpL16-k0 = 100 | 41.5 relative, GpH7-A5/GpH7-B3/GpL16-k0 = 100 | 1.54
B6 | – | 74.4 relative, GpH7-A5/GpH7-B3/GpL16-k0 = 100 | 48.2 relative, GpH7-A5/GpH7-B3/GpL16-k0 = 100 | 1.54
B7 | – | 39.5 relative, GpH7-A5/GpH7-B3/GpL16-k0 = 100 | 18.3 relative, GpH7-A5/GpH7-B3/GpL16-k0 = 100 | 2.16
B8 | 1.1 % of GpH7-A5/GpH7-B3/GpL16-k0 (=100) | – | – | –
B9 | – | 71.2 relative, GpH7-A5/GpH7-B3/GpL16-k0 = 100 | 44.2 relative, GpH7-A5/GpH7-B3/GpL16-k0 = 100 | 1.61
B10 | – | 61.8 relative, GpH7-A5/GpH7-B3/GpL16-k0 = 100 | 39.5 relative, GpH7-A5/GpH7-B3/GpL16-k0 = 100 | 1.56
B11 | – | 75.4 relative, GpH7-A5/GpH7-B3/GpL16-k0 = 100 | 53.1 relative, GpH7-A5/GpH7-B3/GpL16-k0 = 100 | 1.42
B12 | – | 44 relative, GpH7-A5/GpH7-B3/GpL16-k0 = 100 | 20.3 relative, GpH7-A5/GpH7-B3/GpL16-k0 = 100 | 2.17
B13 | – | 76.4 relative, GpH7-A5/GpH7-B3/GpL16-k0 = 100 | 48.3 relative, GpH7-A5/GpH7-B3/GpL16-k0 = 100 | 1.58
B14 | -1.1 % of GpH7-A5/GpH7-B3/GpL16-k0 (=100) | – | – | –

Reference: patent US20180155451A1 (published 2018)
